Patent US20090202549A1 (published 2009)
Numbering of substitutions follows the chain as printed.

What was measured:
Experiment in all cases: capture assay, relative binding affinity of p40 mAb to p40 muteins (FIG. 4)
[1] = molecular target: T1, human p40 single mutant S43R (human, UniProt P29460 23-328)
T1 construct: transiently expressed in HEK293E cells, supernatant used
T1 sequence: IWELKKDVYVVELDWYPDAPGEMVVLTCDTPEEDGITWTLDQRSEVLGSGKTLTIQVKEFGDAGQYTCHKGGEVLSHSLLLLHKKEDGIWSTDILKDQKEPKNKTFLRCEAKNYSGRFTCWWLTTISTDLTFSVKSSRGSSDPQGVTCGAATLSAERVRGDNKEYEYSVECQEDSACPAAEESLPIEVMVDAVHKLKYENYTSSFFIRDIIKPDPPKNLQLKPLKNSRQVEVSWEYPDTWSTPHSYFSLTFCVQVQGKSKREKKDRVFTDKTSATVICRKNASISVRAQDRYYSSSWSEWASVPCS
Method: (§1) In brief, MSD high bind plates (Meso Scale Discovery, MD) were coated with 5 μl of a capture monoclonal antibody (5 μg/ml) at room temperature for 1 hour. […] One-hundred and fifty (150) μl of 5% MSD Blocker A buffer was added to each well and incubated for 1 hr at room temperature. Plates were washed three times with 0.1 M HEPES buffer (pH 7.4). These protein-charged ELISA plates were incubated with 25 μl of different transiently expressed p40 mutant supernatants (1:10 dilution with 0.1 M HEPES buffer, pH 7.4) for 1 hr at room temperature. The plates were washed three times with 0.1 M HEPES buffer (pH 7.4). Twenty-five (25) μl of different concentrations of MSD Sulfo-TAG labeled p40 mAb, ranging from 0 to 20 μg/ml, were dispensed to micro-wells. After incubation for 2 hrs shaking at room temperature, plates were washed 3 times with 0.1 M HEPES buffer (pH 7.4). One hundred and fifty (150) μl of diluted MSD Read Buffer T was dispensed into each well and the plates were analyzed with a SECTOR imager (MSD).
(§2) The relative binding affinity of p40 mAb to different mutant proteins was further analyzed by a capture assay. […] The other mutations, M23T, L40T and S43R, in the interface, each reduced binding by approximately 40%. E45A reduced binding by about 70%.

[2] = molecular target: T2, human p40 single mutant E45A (human, UniProt P29460 23-328)
T2 construct: transiently expressed in HEK293E cells, supernatant used
T2 sequence: T1 sequence with R43S, E45A
Method: as §1, §2

[3] = molecular target: T3, human p40 single mutant L40T (human, UniProt P29460 23-328)
T3 construct: transiently expressed in HEK293E cells, supernatant used
T3 sequence: T1 sequence with L40T, R43S
Method: as §1, §2

[4] = molecular target: T4, human p40 single mutant M23T (human, UniProt P29460 23-328)
T4 construct: transiently expressed in HEK293E cells, supernatant used
T4 sequence: T1 sequence with M23T, R43S
Method: as §1, §2

- reduction of binding (relative binding affinity) [1]: ~40%
- reduction of binding (relative binding affinity) [2]: ~70%
- reduction of binding (relative binding affinity) [3]: ~40%
- reduction of binding (relative binding affinity) [4]: ~40%
B1: p40 mAb (fully human monoclonal antibody directed against the p40 subunit of human IL-12 and IL-23) (antibody, V domains shown)
VH: EVQLVQSGAEVKKPGESLKISCKGSGYSFTTYWLGWVRQMPGKGLDWIGIMSPVDSDIRYSPSFQGQVTMSVDKSITTAYLQWNSLKASDTAMYYCARRRPGQGYFDFWGQGTLVTVSS
VL: DIQMTQSPSSLSASVGDRVTITCRASQGISSWLAWYQQKPEKAPKSLIYAASSLQSGVPSRFSGSGSGTDFTLTISSLQPEDFATYYCQQYNIYPYTFGQGTKLEIKR
notes: Fully human IgG made in a mammalian cell line; also called IL-12 p40 antibody; IL-12p40 antibody
